Experimental data taken from patent US20220233554.

Molecular target: OCT4 wild-type in cells (human) (UniProt Q01860)
Assay: cell_activity
Conditions: for binding signal: transcription activity relative to OBS1+OBS2

Chain of UniProt Q01860 (Q01860 whole entry): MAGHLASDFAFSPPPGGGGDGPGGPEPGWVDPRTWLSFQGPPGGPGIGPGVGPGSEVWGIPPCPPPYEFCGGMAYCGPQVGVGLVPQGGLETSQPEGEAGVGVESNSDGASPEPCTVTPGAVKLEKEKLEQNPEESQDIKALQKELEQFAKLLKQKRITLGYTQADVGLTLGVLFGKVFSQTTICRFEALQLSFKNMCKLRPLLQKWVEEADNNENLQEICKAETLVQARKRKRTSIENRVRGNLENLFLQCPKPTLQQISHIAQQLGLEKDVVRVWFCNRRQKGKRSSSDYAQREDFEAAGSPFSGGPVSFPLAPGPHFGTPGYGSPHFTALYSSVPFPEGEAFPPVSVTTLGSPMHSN

Row | Substance | activity (luciferase reporter in HEK293FT vs vector control) [fold] | binding signal [%]
1 | MYC -1/-1899 promoter reporter | 24.4 | 
2 | MYC OBS2 single-site reporter |  | 40
3 | MYC OBS1 single-site reporter |  | 60
